Two substances from paper PMC3994145 can be followed below.

Assay [1] deals with human FcγRIIIa/158V on Jurkat cells (human).
In assay [2] the target is human FcγRIIa/131H on Jurkat cells (human) (UniProt P12318).
UniProt P12318, sequence (P12318 34-317): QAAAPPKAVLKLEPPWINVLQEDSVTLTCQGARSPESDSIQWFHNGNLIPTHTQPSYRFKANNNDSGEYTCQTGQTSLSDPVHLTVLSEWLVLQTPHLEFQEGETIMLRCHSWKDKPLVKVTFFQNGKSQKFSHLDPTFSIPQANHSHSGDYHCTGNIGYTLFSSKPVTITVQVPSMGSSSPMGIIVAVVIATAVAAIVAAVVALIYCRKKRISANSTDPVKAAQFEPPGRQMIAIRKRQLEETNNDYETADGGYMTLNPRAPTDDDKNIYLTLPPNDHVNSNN

human FcγRIIIa/158V on Jurkat cells (human), sequence (P08637 17-208): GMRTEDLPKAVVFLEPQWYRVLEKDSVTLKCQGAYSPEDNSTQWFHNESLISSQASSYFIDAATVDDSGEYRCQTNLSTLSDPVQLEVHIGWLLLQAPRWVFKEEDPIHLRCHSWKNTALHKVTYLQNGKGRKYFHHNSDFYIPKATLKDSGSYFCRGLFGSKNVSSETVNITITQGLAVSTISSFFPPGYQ

In the case of “rituximab (wild-type, anti-CD20 mAb, IgG1) (antibody)”, the EC50 of luciferase activity of Jurkat/FcγRIIIa/NFAT-Luc cells co-cultured with Daudi cells and serially diluted mAb in assay [1] was found to be 0.034 µg/mL.
With “rituximab G236A/S239D/I332E variant (antibody)”, the EC50 of luciferase activity of Jurkat/FcγRIIa/NFAT-Luc cells co-cultured with Daudi cells and serially diluted mAb in assay [2] is 0.057 µg/mL. The same substance returned an EC50 of luciferase activity of Jurkat/FcγRIIIa/NFAT-Luc cells co-cultured with Daudi cells and serially diluted mAb in assay [1] of 0.016 µg/mL.
